Data set [1] deals with anti-HIV1-p17 antibody. Briefly: Reporter enzyme activity assay with nitrocefin and anti-HIV1-p17 antibody titration. The following applies: 50 μM nitrocefin; for Kd: read-out: dissociation constant (Kd) of reporter enzyme for target antibody, fit of nitrocefin hydrolysis rate vs anti-HIV1-p17 concentration, 1:1 binding model, pH 7.0; for increase in enzymatic activity upon addition of 200 nM anti-HIV1-p17: 0.3 nM sensor, 200 nM antibody.

In data set [2] the test system is IgG mix. The data set is described as follows: Specificity of reporter enzyme activity towards nonspecific IgG mix. The following applies: up to highest IgG concentration tested (2 μM).
The test system of data set [3] is anti-HIV1-p17 antibody. Briefly: Reporter enzyme activity assay with fluorescent substrate CCF2-FA in buffer and serum.

This note sets out measurements from patent US20150285818A1, “Switchable Reporter Enzymes for Homogenous Antibody Detection” (TECHNISCHE UNIVERSITEIT EINDHOVEN, priority 2012, published 2015).

Residue numbers refer to the chain shown, from its start. In names and notes the source's numbering stands.

B1: Abs3-1: Abs-3 variant with E104D in β-lactamase and E31A in BLIP; SEQ ID NO: 22 (protein)
chain: MSIQHFRVALIPFFAAFCLPVFAHHHHHHLVPRGSHPETLVKVKDAEDQLGARVGYIELDLNSGKILESFRPEERFPMMSTFKVLLCGAVLSRIDAGQEQLGRRIHYSQNDLVDYSPVTEKHLTDGMTVRELCSAAITMSDNTAANLLLTTIGGPKELTAFLHNMGDHVTRLDRWEPELNEAIPNDERDTTMPVAMATTLRKLLTGELLTLASRQQLIDWMEADKVAGPLLRSALPAGWFIADKSGAGERGSRGIIAALGPDGKPSRIVVIYTTGSQATMDERNRQIAEIGASLIKHWTSGGELDRWEKIRLRPGGSGGSGGSGGSGGSGGSGAEAAAKEAAAKEAAAKEAAAKEAAAKEAAAKAGSGGSGGSGGSGGSGGSGAEAAAKEAAAKEAAAKEAAAKEAAAKEAAAKAGSGGSGGSGGSGGSGGSGGELDRWEKIRLRPGGSHGAGVMTGAKFTQIQFGMTRQQVLDIAGAENCATGGSFGDSIHCRGHAAGDYYAYATFGFTSAAADAKVDSKSQEKLLAPSAPTLTLAKFNQVTVGMTRAQVLATVGQGSCTTWSEYYPAYPSTAGVTLSLSCFDVDGYSSTGFYRGSAHLWFTDGVLQGKRQWDLVGEFGGWSHPQFEK
Turning to B1, in data set [1], the “enzymatic (background) activity in the absence of antibody” value (“enzymatic (background) activity” for short) is “low background activity” and the dissociation constant (Kd) worked out at 0.17 ± 0.03 nM. In addition, the “increase in enzyme activity with random mix of IgG proteins” value in data set [2] was “No significant increase”. In data set [3] (5 nM sensor, 10% FBS, 10 μM CCF2-FA), the “increase in enzyme activity upon addition of 50 nM target antibody in serum” value was determined as 10 fold. In data set [3] (1 μM CCF2-FA in buffer, 0.1 nM sensor), the “dynamic range with CCF2-FA as substrate” value turned out to be 9 fold. Further, the “enzymatic activity in absence of target antibody, 1 μM CCF2-FA compared to 50 μM nitrocefin” value in data set [3] (buffer) is given as “significantly lower”.

B2: Abs3-2: Abs-3 variant with E104D in β-lactamase and F142A in BLIP; SEQ ID NO: 37 (protein)
chain: B1 chain with A482E, F593A
Regarding B2, in data set [1], the “enzymatic (background) activity” value was “low background activity” and the Kd came to 0.19 ± 0.02 nM. Also, the “increase in enzyme activity with random mix of IgG proteins” value in data set [2] was “No significant increase”.

B3: Abs-1: TEM1 β-lactamase fused via linker with WEKIRLR epitopes to weak-binding RRGHYY peptide inhibitor; SEQ ID NO: 12 (protein)
chain: MSIQHFRVALIPFFAAFCLPVFAHHHHHHLVPRGSHPETLVKVKDAEDQLGARVGYIELDLNSGKILESFRPEERFPMMSTFKVLLCGAVLSRIDAGQEQLGRRIHYSQNDLVEYSPVTEKHLTDGMTVRELCSAAITMSDNTAANLLLTTIGGPKELTAFLHNMGDHVTRLDRWEPELNEAIPNDERDTTMPVAMATTLRKLLTGELLTLASRQQLIDWMEADKVAGPLLRSALPAGWFIADKSGAGERGSRGIIAALGPDGKPSRIVVIYTTGSQATMDERNRQIAEIGASLIKHWTSGGWEKIRLRGGSGGSGGSGGSGGSGGSGAEAAAKEAAAKEAAAKEAAAKEAAAKEAAAKAGSGGSGGSGGPQGILGQGSGGSGGSGGSGAEAAAKEAAAKEAAAKEAAAKEAAAKEAAAKAGSGGSGGSGGSGGSGGSGGWEKIRLRGGSGGSHGRRGHYYGEFGGWSHPQFEK
Turning to B3, the “increase in enzymatic activity upon addition of 200 nM anti-HIV1-p17” value in data set [1] was “no increase in enzymatic activity”.

B4: Abs2-2: Abs3-2 with the large epitope changed for the shorter WEKIRLR epitope; SEQ ID NO: 20 (protein)
chain: MSIQHFRVALIPFFAAFCLPVFAHHHHHHLVPRGSHPETLVKVKDAEDQLGARVGYIELDLNSGKILESFRPEERFPMMSTFKVLLCGAVLSRIDAGQEQLGRRIHYSQNDLVDYSPVTEKHLTDGMTVRELCSAAITMSDNTAANLLLTTIGGPKELTAFLHNMGDHVTRLDRWEPELNEAIPNDERDTTMPVAMATTLRKLLTGELLTLASRQQLIDWMEADKVAGPLLRSALPAGWFIADKSGAGERGSRGIIAALGPDGKPSRIVVIYTTGSQATMDERNRQIAEIGASLIKHWTSGGWEKIRLRGGSGGSGGSGGSGGSGGSGAEAAAKEAAAKEAAAKEAAAKEAAAKEAAAKAGSGGSGGSGGPQGILGQGSGGSGGSGGSGAEAAAKEAAAKEAAAKEAAAKEAAAKEAAAKAGSGGSGGSGGSGGSGGSGGWEKIRLRGGSGGSHGAGVMTGAKFTQIQFGMTRQQVLDIAGAENCETGGSFGDSIHCRGHAAGDYYAYATFGFTSAAADAKVDSKSQEKLLAPSAPTLTLAKFNQVTVGMTRAQVLATVGQGSCTTWSEYYPAYPSTAGVTLSLSCFDVDGYSSTGAYRGSAHLWFTDGVLQGKRQWDLVGEFGGWSHPQFEK
With B4, in data set [1] (saturating anti-HIV1-p17), the “increase in enzyme activity upon addition of target antibody” value was 1.8 fold. For the same molecule, the Kd in data set [1] was 108 nM.

B5: Abs-2: TEM1 β-lactamase fused via linker with WEKIRLR epitopes to BLIP protein as inhibitor domain; SEQ ID NO: 13 (protein)
chain: B4 chain with D114E, A597F
For B5, in data set [1], the “increase in enzymatic activity upon addition of 200 nM anti-HIV1-p17” value is “no increase in activity” and the “enzymatic (background) activity” value was “strongly inhibited”.

As usually defined, the Kd is the concentration at which binding is half-saturated.
